Source: patent publication US20200408765A1 (Sanofi, published 2020)

Molecular target: human CD38 (human, UniProt P28907 1-300)
Test: cell-based or functional assay

B1: chimeric 38SB31 (antibody, V domains shown)
VH: DVKLVESGGGLVKPGGSLKLSCEASGFTFSSYTLSWVRQTPETRLEWVATISIGGRYTYYPDSVEGRFTISRDNAKNTLYLQMNSLKSEDTAMYYCTRDFNGYSDFWGQGTTLTVSS
VL: DTVMTQSHKFISTSVGDRVSITCKASQVVGSAVAWYQQKPGQSPKLLIYWASTRHTGVPDRFTGSGSGTDFTLTISNVQSEDLADYFCQQYNSYPYTFGGGTKLEIKR
CDC: specific viability of Daudi cells with 1.25 µg/mL or higher antibody and complement: 53%
